# According to US20220073635A1 (ALLIGATOR BIOSCIENCE, published 2022):
# What was measured:
# [1] = target: T1, EpCAM-Fc (Sino hEpCAM_Fc #10694-H02H) (human, UniProt P16422 24-265); experiment: Octet BLI, Assay 3: EpCAM-Fc coupled to AR2G sensor, bsAb in solution, 1:1 fit
# T1 construct: Bought protein, called dimeric; also called dimeric antigen EpCAM-Fc; not shown: Fc part
# T1 sequence (looked up): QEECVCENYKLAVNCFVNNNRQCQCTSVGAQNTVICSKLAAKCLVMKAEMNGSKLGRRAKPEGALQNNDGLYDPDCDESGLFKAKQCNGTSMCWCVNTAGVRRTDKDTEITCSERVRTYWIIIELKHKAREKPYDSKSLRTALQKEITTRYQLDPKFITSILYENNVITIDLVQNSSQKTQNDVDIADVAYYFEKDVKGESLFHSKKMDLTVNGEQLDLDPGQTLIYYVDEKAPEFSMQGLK
# Description: (§1) Kinetic measurements were performed using the Octet RED96 platform (ForteBlo).
# Antigen was coupled to Amine reactive Second generation sensors (Dip and Read Amine reactive Second-Generation (AR2G) Biosensors (Part no #18-5092 (tray)) at antigen concentrations of 0.4, 1.5, 0.25 or 0.5 μg/mL. BsAb (serially diluted ½ in 1× Kinetic buffer (ForteBio) with start concentrations of 20, 15, 10 or 25 nM) were analysed for binding to antigen-coupled sensors. The association was followed for 300 seconds and the dissociation in 1× Kinetic buffer for 300 seconds. Sensor tips were regenerated using 10 mM glycine, pH 2.2. Data generated were referenced by subtracting a parallel buffer blank, the baseline was aligned with the y-axis, inter-step correlation by alignment against dissociation was performed and the data were smoothed by a Savitzky-Golay filter in the data analysis software (v.9.0.0.14). The processed data were fitted using a 1:1 Langmuir binding model with X2 as a measurement of fitting accuracy.
# [2] = target: T2, hEpCAM (R&D Systems #9277-EP) (human, UniProt P16422 24-265); experiment: Octet BLI, Assay 2: bsAb on FAB2G sensor, monomeric EpCAM-his in solution, 1:1 fit
# T2 construct: Bought protein, monomeric; also called human EpCAM; monomeric antigen EpCAM-his; not shown: His tag
# T2 sequence (looked up): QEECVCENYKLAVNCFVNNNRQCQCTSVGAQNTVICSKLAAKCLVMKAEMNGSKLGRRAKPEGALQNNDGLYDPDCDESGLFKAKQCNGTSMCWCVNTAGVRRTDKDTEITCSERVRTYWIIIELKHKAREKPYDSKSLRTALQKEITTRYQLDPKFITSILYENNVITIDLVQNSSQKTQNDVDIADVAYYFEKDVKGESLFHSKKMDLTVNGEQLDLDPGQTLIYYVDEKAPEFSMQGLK
# Description: as §1
# (§2) BsAb at 1.0 or 1.5 ug/ml where coupled to anti-human Fab-CH1 2nd generation (FAB2G) biosensors (Part no #18-5125 (tray)). Antigens were serially diluted % in 1× Kinetic buffer (ForteBio) to 100 nM, 50 nM, 25 nM, 12.5 nM, 6.25 nM, 3.125 nM, 1.56 nM or 0 nM. The association was followed for 300 seconds and the dissociation in 1× Kinetic buffer for 300 seconds. Sensor tips were regenerated using 10 mM glycine, pH 1.5. Data generated were referenced by subtracting a parallel buffer blank, the baseline was aligned with the y-axis, inter-step correlation by alignment against dissociation was performed and the data were smoothed by a Savitzky-Golay filter in the data analysis software (v.9.0.0.14). The processed data were fitted using a 1:1 Langmuir binding model with X2 as a measurement of fitting accuracy.
# [3] = target: T1, EpCAM-Fc (Sino hEpCAM_Fc #10694-H02H); experiment: Octet BLI, Assay 1: bsAb on FAB2G sensor, dimeric EpCAM-Fc in solution, 1:1 fit
# Description: as §1, §2
# [4] = target: T3, human EpCAM expressed on cells (human, UniProt P16422 24-314); experiment: flow cytometry, biotinylated antibody titrated on EpCAM-transfected and control CHO cells, streptavidin detection
# T3 construct: whole, on cells; also called EpCAM-transfected CHO cells; CHO-EpCAM
# T3 sequence (looked up): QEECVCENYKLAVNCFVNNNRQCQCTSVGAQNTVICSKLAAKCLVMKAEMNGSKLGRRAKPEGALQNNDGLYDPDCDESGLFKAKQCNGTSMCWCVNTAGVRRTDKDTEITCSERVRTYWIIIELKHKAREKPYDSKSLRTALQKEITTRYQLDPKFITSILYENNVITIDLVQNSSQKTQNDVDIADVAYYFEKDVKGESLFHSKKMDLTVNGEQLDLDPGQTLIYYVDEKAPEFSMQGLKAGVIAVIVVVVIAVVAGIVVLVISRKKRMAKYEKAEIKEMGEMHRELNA
# Source text: The human EpCAM gene was cloned into pcDNA3.1, and the vector was subsequently stably transfected into CHO cells. Control CHO cells were stably transfected with and empty pcDNA3.1 vector. […] Binding of biotinylated antibodies was detected with fluorochrome-conjugated streptavidin and analysed using flow cytometry.
# [5] = target: T4, CD40 on human peripheral blood mononuclear cells (human, UniProt P25942 21-277); experiment: flow cytometry, biotinylated antibody titrated on human PBMC (B cells, monocytes, T cells, NK cells gated), streptavidin detection
# T4 construct: whole, on cells; also called CD40+ cell populations among PBMC (B cells, monocytes)
# Source text: Binding of biotinylated antibodies was detected with fluorochrome-conjugated streptavidin and analysed using flow cytometry.
# [6] = target: T5, biotinylated hCD40 (504-030 from Ancell) (human, UniProt P25942 21-193, biotinylated); experiment: dual ELISA, bsAb captured on plate-coated hEpCAM, detected with biotinylated hCD40 and streptavidin-HRP
# T5 construct: Detection reagent of the dual ELISA
# Description: Plates were coated with 0.5 μg/mL hEpCAM (R&D Systems #9277-EP) in PBS over night at 4° C. After washing in PBS/0.05% Tween 20 (PBST), the plates were blocked with PBS/0.2% BSA for at least 30 minutes at room temperature before being washed again. Samples serially diluted from 50 nM in PBS/0.02% BSA were then added and allowed to bind for at least 1 hour at room temperature. […] Dual antigen-complexed bsAb were detected with HRP-labelled streptavidin. SuperSignal Pico Luminescent was used as substrate and luminescence signals were measured using Fluostar Optima.
# T4 sequence (P25942 21-277): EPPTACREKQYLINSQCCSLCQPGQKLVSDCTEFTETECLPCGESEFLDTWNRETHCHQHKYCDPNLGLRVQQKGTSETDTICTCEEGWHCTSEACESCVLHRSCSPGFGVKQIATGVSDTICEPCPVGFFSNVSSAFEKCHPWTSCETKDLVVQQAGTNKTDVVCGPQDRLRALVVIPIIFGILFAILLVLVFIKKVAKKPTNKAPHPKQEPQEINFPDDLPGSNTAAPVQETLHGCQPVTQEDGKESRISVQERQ
# T5 sequence (P25942 21-193 limits assumed): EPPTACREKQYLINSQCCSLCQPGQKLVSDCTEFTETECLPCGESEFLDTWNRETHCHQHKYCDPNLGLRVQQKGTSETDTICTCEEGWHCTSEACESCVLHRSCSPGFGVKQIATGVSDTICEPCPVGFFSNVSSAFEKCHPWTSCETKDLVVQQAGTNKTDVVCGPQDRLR
Binder,Kd [1],koff [1],kon [1],Kd [2],koff [2],kon [2],Kd [3],koff [3],kon [3],binding result [4],binding result [5],binding result [6]
1132-3174.R (bispecific antibody) chain 1: not shown chain 2: ELVMTQSPSSLTVTAGEKVTMSCKSSQSLLNSGNQKNYLTWYQRKPGQPPKLLIYWASTRESGVPDRFTGSGSGTDFTLTISSVQAEDLAVYYCQNDYSYPLTFGAGTKLEIK chain 3: DIQMTQSPSSLSASVGDRVTITCRASQSISSYLNWYQEKPGKAPKLLIYAASSLQSGVPSRFSGSGSGTDFTLTISSLQPEDFATYYCQQYGRNPPTFGQGTKLEIKRTVAAPSVFIFPPSDEQLKSGTASVVCYLNNFYPREAKVQWKVDNALQSGNSQESVTEQDSKDSTYSLWSTLTLSKADYEKHKVYACEVTHQGLSSPVTKSFNRGEC chain 4: EVQLLEQSGAELVRPGTSVKISCKASGYAFTNYWLGWVKERPGHGLEWIGDIFPGSGNIHYNEKFKGKATLTADKSSSTAYMQLSSLTFEDSAVYFCARLRNWDEPMDYWGQGTTVTVSSASTKGPSVFPLAPSSKSTSGGTAALGCLVKDYFPEPVTVSWNSGALTSGVHTFPAVLQSSGLYSLSSVVEVPSSSLGTQTYICNVNHKPSNTKVDKKVEPKSC,8 nM,0.001 s⁻¹,100000 M⁻¹ s⁻¹,,,,,,,,,
"1132-005025.M (bispecific antibody, also called CD40-EpCAM bispecific antibody in the Morrison format) VH: EVQLLESGGGLVQPGGSLRLSCAASGFTFSSYAMSWVRQAPGKGLEWVSGIGSYGGGTYYADSVKGRFTISRDNSKNTLYLQMNSLRAEDTAVYYCARYVNFGMDYWGQGTLVTVSS VL: DIQMTQSPSSLSASVGDRVTITCRASQSISSYLNWYQQKPGKAPKLLIYAASSLQSGVPSRFSGSGSGTDFTLTISSLQPEDFATYYCQQYGRNPPTFGQGTKLEIK scFv: not shown",,,,300 nM,0.01 s⁻¹,30000 M⁻¹ s⁻¹,4 nM,0.001 s⁻¹,300000 M⁻¹ s⁻¹,,,
"1132-005038.M (bispecific antibody, also called CD40-EpCAM bispecific antibody in the Morrison format) VH: EVQLLESGGGLVQPGGSLRLSCAASGFTFSSYAMSWVRQAPGKGLEWVSGIGSYGGGTYYADSVKGRFTISRDNSKNTLYLQMNSLRAEDTAVYYCARYVNFGMDYWGQGTLVTVSS VL: DIQMTQSPSSLSASVGDRVTITCRASQSISSYLNWYQQKPGKAPKLLIYAASSLQSGVPSRFSGSGSGTDFTLTISSLQPEDFATYYCQQYGRNPPTFGQGTKLEIK scFv: not shown",,,,1000 nM,0.01 s⁻¹,8000 M⁻¹ s⁻¹,6 nM,0.002 s⁻¹,300000 M⁻¹ s⁻¹,,,
"1132.m2 (antibody, V domains shown, also called LALA-mutated agonistic monoclonal CD40 antibody) VH: EVQLLESGGGLVQPGGSLRLSCAASGFTFSSYAMSWVRQAPGKGLEWVSGIGSYGGGTYYADSVKGRFTISRDNSKNTLYLQMNSLRAEDTAVYYCARYVNFGMDYWGQGTLVTVSS VL: DIQMTQSPSSLSASVGDRVTITCRASQSISSYLNWYQQKPGKAPKLLIYAASSLQSGVPSRFSGSGSGTDFTLTISSLQPEDFATYYCQQYGRNPPTFGQGTKLEIK",,,,,,,,,,no binding,binds,
"1132-3188.M (bispecific antibody, V domains shown, also called CD40-EpCAM bispecific antibody in the Morrison format; 3188 = 4D5MOCB = BM1) VH 1: EVQLLESGGGLVQPGGSLRLSCAASGFTFSSYAMSWVRQAPGKGLEWVSGIGSYGGGTYYADSVKGRFTISRDNSKNTLYLQMNSLRAEDTAVYYCARYVNFGMDYWGQGTLVTVSS VL 1: DIQMTQSPSSLSASVGDRVTITCRASQSISSYLNWYQQKPGKAPKLLIYAASSLQSGVPSRFSGSGSGTDFTLTISSLQPEDFATYYCQQYGRNPPTFGQGTKLEIK VH 2: EVQLVQSGPGLVQPGGSVRISCAASGYTFTNYGMNWVKQAPGKGLEWMGWINTYTGESTYADSFKGRFTFSLDTSASAAYLQINSLRAEDTAVYYCARFAIKGDYWGQGTLLTVSS VL 2: DIQMTQSPSSLSASVGDRVTITCRSTKSLLHSNGITYLYWYQQKPGKAPKLLIYQMSNLASGVPSRFSSSGSGTDFTLTISSLQPEDFATYYCAQNLEIPRTFGQGTKVELK",,,,30 nM,0.004 s⁻¹,100000 M⁻¹ s⁻¹,< 0.001 nM,< 1e-07 s⁻¹,300000 M⁻¹ s⁻¹,,,
"1132-3174.M (bispecific antibody, V domains shown, also called CD40-EpCAM bispecific antibody in the Morrison format) VH 1: EVQLLESGGGLVQPGGSLRLSCAASGFTFSSYAMSWVRQAPGKGLEWVSGIGSYGGGTYYADSVKGRFTISRDNSKNTLYLQMNSLRAEDTAVYYCARYVNFGMDYWGQGTLVTVSS VL 1: DIQMTQSPSSLSASVGDRVTITCRASQSISSYLNWYQQKPGKAPKLLIYAASSLQSGVPSRFSGSGSGTDFTLTISSLQPEDFATYYCQQYGRNPPTFGQGTKLEIK VH 2: EVQLLEQSGAELVRPGTSVKISCKASGYAFTNYWLGWVKQRPGHGLEWIGDIFPGSGNIHYNEKFKGKATLTADKSSSTAYMQLSSLTFEDSAVYFCARLRNWDEPMDYWGQGTTVTVSS VL 2: ELVMTQSPSSLTVTAGEKVTMSCKSSQSLLNSGNQKNYLTWYQQKPGQPPKLLIYWASTRESGVPDRFTGSGSGTDFTLTISSVQAEDLAVYYCQNDYSYPLTFGAGTKLEIK",,,,500 nM,0.01 s⁻¹,20000 M⁻¹ s⁻¹,0.5 nM,8e-05 s⁻¹,200000 M⁻¹ s⁻¹,,,binds
